The data set deals with T1, MleR (Streptococcus mutans UA159?) (UniProt Q8DWC9).
T1 sequence: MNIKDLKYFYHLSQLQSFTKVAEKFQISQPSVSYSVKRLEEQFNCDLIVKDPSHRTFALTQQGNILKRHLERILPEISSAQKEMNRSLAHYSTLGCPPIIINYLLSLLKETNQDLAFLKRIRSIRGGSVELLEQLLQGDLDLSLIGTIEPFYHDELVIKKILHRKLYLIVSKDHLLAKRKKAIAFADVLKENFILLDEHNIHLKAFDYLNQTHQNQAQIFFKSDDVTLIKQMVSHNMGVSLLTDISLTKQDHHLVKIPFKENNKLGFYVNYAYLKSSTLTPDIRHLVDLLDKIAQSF
Nature of the data set: EMSA. The conditions noted are these: 20 mM Tris pH 7.5, 100 mM KCl, 2 mM EDTA, 10% glycerol, ~100 ng MleR, equal amount of competitor DNA (EP10/11 at 75 ng/ul), 20 min ambient temperature; 4.5% …. (Mobility shift assays separate free from complexed probe on a gel.)

In the case of “GGTATCTTTGCGGCTATGGATATCACAGGTGAAAAATTGACTGATCAAGTCTATCTCTGTTACGGTGGCGGTACAGCAGGTGCGGGTATTGCCTCTCGTGTCTTGCGTGAAA (double strand) [internal mleS fragment (137qF/R)]”, the binding entry was “no binding”.

The record behind these values is paper PMC2834670.
